In paper PMC3257273, “Crystal Structure of a Human Single Domain Antibody Dimer Formed through VH-VH Non-Covalent Interactions” (PLoS ONE, 2012):

Target: T1, human HER2 (ErbB2)/Fc chimera (Homo sapiens, UniProt P04626)
T1 construct: human epidermal growth factor receptor-2 (HER2, ErbB2), the part present in the bought HER2 (ErbB2)/Fc chimera; also called HER2/Fc; human epidermal growth factor receptor-2; source: bought: R&D Systems
Assay: SPR; Biacore 3000; HER2 amine-coupled on CM5 chip (ovalbumin as reference surface); sdAb injected at 5 to 600 nM, 40 uL/min; room temperature; HBS-EP (10 mM HEPES pH 7.4, 150 mM NaCl, 3 mM EDTA, 0.005% P20); 1:1 Langmuir model
Settings: both partners purified

B1: Gr3 (VHH)
VHH: QVQLVESGGGLIKPGGSLRLSCAASGFTVSYESMGWVRQAPGKGLEWVSAISSSGGSTYYADSVKGRFTISRDNSKNTVYLQMNSLRAEDTAVYYCVTPERQCKQSTCYARPRYWGQGTMVTVSS
notes: differs from Gr6 only in CDR1 and CDR3; selected from a synthetic human VH phage display library; Single-domain antibody from a human VH, not a camelid VHH; the vector may add further C-terminal residues besides the His tag; also called anti-HER2 sdAb Gr3; human VH single-domain antibody; source: E. coli periplasm, purified (IMAC, Ni-NTA / HiTrap chelating HP)
Kd: 68 nM
koff: 0.02 s⁻¹
kon: 290000 M⁻¹ s⁻¹
